In the nanobody polyreactivity screen of Harvey et al. (2022):

test: yeast display, Sf9 membrane polyspecificity reagent, FACS + sequencing; frameworks hold sequencing errors
Procedure, shortened: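 Nanobodies came from a synthetic yeast display library in Saccharomyces cerevisiae BJ5465, induced with galactose for 36–48 hours and stained for 1 hour at 4 °C with 10% biotinylated, detergent-solubilized Sf9 membrane reagent. Cells were enriched on streptavidin microbeads and then FACS-sorted, with low and high (top ~1%) gates set on anti-HA fluorescence for expression and streptavidin fluorescence for reagent binding. Each polyreactivity label reflects the gate a clone came from. Genes were amplified by colony PCR, sequenced by MiSeq 2 × 250 and filtered by CDR length.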

Row | Sequence | polyreactivity (PSR sort gate)
1 | QVQLVESGGGLVQAGGSLRLSCAASGRIFGINSMGWYRQAPGKERELVAAITGGGSTYADSVKGRFTISRDNAKNTVYLQMNSLKPEDTAVYYCAAVSPRRYRYDYWGQGTQVTVSS | low polyreactivity
2 | QVQLVESGGGLVQAGGSLRLSCAASGRIFGKYAMGWYRQAPGKERELVAANSRSCASTYYADSVKGRFTISRDNAKNTVYLQMNSLKPEDTAVYYCAAVPPYNYRFRVDYWGQGTQVTVSS | high polyreactivity
3 | QVQLVESGGGLVQAGGSLRLSCAASGRIFGKYAMGWYRQAPGKEWELVAAISSSGGSTYYADSVKGRFTISRDNAKNTVYLQMNSLKPEDTAVYYCNAPQYWRRSYREYDYWGQGTQVTVSS | high polyreactivity
4 | QVQLVESGGGLVQAGGSLRLSCAASGRIFGKYPMGWYRQAPAKERELVAAIRITGGSTYYADSVKGRFTISRDNAKNTVYLQMNSLKPEDTAVYYCAAVYKYADVIYDYWGQGTQVTVSS | high polyreactivity
5 | QVQLVESGGGLVQAGGSLRLSCAASGRIFGKYVMGWYRQAPGKERELVAAIRSSGGSTYYADSVKGRFTISRDNAKNTVYLQLNSLKPEDTAVYYCAKRLHYSAPRYTENDYWGQGTQVTVSS | high polyreactivity
6 | QVQLVESGGGLVQAGGSLRLSCAASGRIFGLYAMGWYRQAPGKERELVAAISVISTGPYYADSVKGRFTISRDNAMNTVYFQMNSLKPEDTAVYYCNADSVQYTPPESDYWGQGTQVTVSS | low polyreactivity
7 | QVQLVESGGGLVQAGGSLRLSCAASGRIFGLYAMGWYRQAPGKERELVAAITDSDGSTYYADSVKGRFTISRDNAKNTVYLQMNSLKPEDTAVYYCNKRLPLIRTSWAYDYWGQGTQVTVSS | low polyreactivity
8 | QVQLVESGGGLVQAGGSLRLSCAASGRIFGLYAMGWYTQAPGKERELVAAYADSVKGRFTISRDNAKNTVYLQMNSRKPVDTAVYYCAKGPLYAGSTIDLRDFNYWGQGTQVTVSS | low polyreactivity
9 | QVQLVESGGGLVQAGGSLRLSCAASGRIFGLYLGWYRQAPGKERELVATITWRGGSTYYADSVKGRFTISRDNAKNTVYLHLNSVKPEDTEVYYCAARGYRGRMGYWGQGTQVTVSS | low polyreactivity
10 | QVQLVESGGGLVQAGGSLRLSCAASGRIFGNYAMGWYRQAPGKERELVAAISGGGSTYYADSVKGRFTISRDNAKNTVYLQMNSLKPEDTAVYYCAARFLWSVFGRKGGFWGQGTQVTVSS | low polyreactivity
11 | QVQLVESGGGLVQAGGSLRLSCAASGRIFGNYAMGWYRQAPGKERELVAAITSGARTYYADSVKGRFTISRDNAKNTVYLQMNSLKPEDTAVYYCAAYHKSYSYRYDYWGQGTQVTVSS | high polyreactivity
12 | QVQLVESGGGLVQAGGSLRLSCAASGRIFGPYAMGWDRQAPGKERELVAAITWRGDRTYYADSVKGRFTISRDNPKNTVYLQMNSLKPEDTAVYYCAARGGRSEYDYWGQGTQVTVSS | low polyreactivity
13 | QVQLVESGGGLVQAGGSLRLSCAASGRIFGPYAMGWYRQAPGKERELVAAITWSSGITYYADSVKGRFTISRDNAKNTVYLQMNSLKPEDTAVYYCAADSRLPYYRIMEYWGQGTQVTVSS | low polyreactivity
14 | QVQLVESGGGLVQAGGSLRLSCAASGRIFGPYAMGWYRQAPGKEREWVAAISYSGGRTRYADSVKGRFTISRDNAKNTVYLQMNSLKPEDTAVYYCNRVIPTQSLRDYYWGQGTQVTVSS | high polyreactivity
15 | QVQLVESGGGLVQAGGSLRLSCAASGRIFGPYTMAWYRQAPRKERELVAAISRRGGSTYYADSVKGRFTISRDNAKNTVYLQMTSLKPEDTAVYYCAAKIYFLAILYDYWGQGTQVTVSS | high polyreactivity
16 | QVQLVESGGGLVQAGGSLRLSCAASGRIFGQNAMGWYRQSPGKERELVAVITSRGTRTYYADSVKGRFTISRDNAKNTVYLQMNSLNQEDTAVYYCAADVYSDNYKTWPYDYWGQGTQVTVSS | low polyreactivity
17 | QVQLVESGGGLVQAGGSLRLSCAASGRIFGQNVMGWYRQAPGKERELVAAITSAGRTYYADSVKGRFTISRDNAKNTVYLQMNSLKPEDTAVYYCAKVVSRKGYGYWGQGTQVTVSS | high polyreactivity
18 | QVQLVESGGGLVQAGGSLRLSCAASGRIFGRNAMGWYIQAPGTERELVAAISKSGTSTYYADSVKGRFTISRDNAKNTVYLQMNSLKPEDTAVYYCAAALPGYGDYYYWGQGTQVTVSS | high polyreactivity
19 | QVQLVESGGGLVQAGGSLRLSCAASGRIFGRNAMGWYRQAPGKERELVAAISSGGSTYYADSVKGRFTISRDNAKNTVYLQMNSLKPEDTAVYFCAVRGSYYNGGRAFESWGQGTQVTVSS | high polyreactivity
20 | QVQLVESGGGLVQAGGSLRLSCAASGRIFGRNAMGWYRQAPGKERELVAAISSSGGTYYADSVKGRFTISRDNAKNTVYLQMNSLKPEDTAVYYCAADGPVTGWFYTAIGWVKYDYWGQGTQVTVSS | high polyreactivity
21 | QVQLVESGGGLVQAGGSLRLSCAASGRIFGRTAMGWYRKAPGKERELVAAISWRGGNTYYADSVKGRFTISRDNAKNTVYLQMNSLKPEDTAVYYCNTVQYRNEMGYWGQGTQVTVSS | high polyreactivity

Row | Sequence | polyreactivity (PSR sort gate)
22 | QVQLVESGGGLVQAGGSLRLSCAASGRIFGRYALGWYRQAPGKERELVAAISSSGGSTYFADSVKGRFTISRDNAKNTVYLQMNSLKPEDTAGYYCAADVSAKRYYWGQGTQVTVSS | high polyreactivity
23 | QVQLVESGGGLVQAGGSLRLSCAASGRIFGRYAMGWYRPAPGKERELVAGISARGGSTYYADSVKGRFTISRDNAKNTVYLQMNSLKPEDTAVYYCAARPYSIVPYDYWGQGTQVTVSS | high polyreactivity
24 | QVQLVESGGGLVQAGGSLRLSCAASGRIFGRYAMGWYRQAPGKERELVAAISSGSSTNYADSLKGRFTISRDNAKNTVYLQMNSLKPEDTAVYYCAVVLYRHWWYDYWGQGTQVTVSS | high polyreactivity
25 | QVQLVESGGGLVQAGGSLRLSCAASGRIFGRYAMGWYRQAPGKERELVAAITSSGGNTYYADSVKGRFTISRDNAKNTVYLQMNSLKPEDTAVYYCNALSARSRLQSDYWGQGTQVTVSS | high polyreactivity
26 | QVQLVESGGGLVQAGGSLRLSCAASGRIFGRYAMGWYRQAPGKERELVASITRRGGSTYYADSVKGRFTISRDNAKNTVYLQMNSLKPEDTAVYYCAAGGFSWEGDSWGQGTQVTVSS | high polyreactivity
27 | QVQLVESGGGLVQAGGSLRLSCAASGRIFGRYAMGWYRQAPGKERELVAVISARGARTYYADSVKGRFTISRDNAKHTVYLQMNSLKPEDTAVYYCAVDQYATDDYWGQGTQVTVSS | high polyreactivity
28 | QVQLVESGGGLVQAGGSLRLSCAASGRIFGRYVMGWYRQAPGKERELVAAITSRDDSTYYADSVKGRFTISRDNAKNTVYLQMNSLKPEDTAVYYCAATWGRGYDYWGQGTQVTVSS | high polyreactivity
29 | QVQLVESGGGLVQAGGSLRLSCAASGRIFGSFAMGWYRQAPGKERELVAAITKRGGRTYYADSVKGRFTISRDNANNTVYLQMNSLKPEDTAVYYCRIASYDYWGQGTQVTVSA | high polyreactivity
30 | QVQLVESGGGLVQAGGSLRLSCAASGRIFGSNPMGWYRQAPGKERELVAAISSGGSTSYADSVKGRFTISRDNAKKTVYLQMNSLKPEDTAVYYCAADRFAFYGRYRGPYYYWGQGTQVTVSS | high polyreactivity
31 | QVQLVESGGGLVQAGGSLRLSCAASGRIFGSYAMGWYRQAPGKERELVAAITRSGGSTYYADSVKGRFTISRDNAKNTVYLQMNSLKPEDTAVYYCAARYGIRYAYFGRFDYWGQGTQVTVSS | high polyreactivity
32 | QVQLVESGGGLVQAGGSLRLSCAASGRIFGSYAMGWYRQAPGKERELVAGIRSVGSTYYADSVKGRFTISRDNAKNTVYFQMNSLKPEDTAVYYCAAEYFNQNTRQGYDSWGQGSQVTVSS | low polyreactivity
33 | QVQLVESGGGLVQAGGSLRLSCAASGRIFGSYAMGWYRQAPGKERELVASIRSGGRTKYADSVKGRFTISRDNAKNTVYLQMNSLKPEVTAVYYCAVPIEWDYGYWGQGTQVTVSS | low polyreactivity
34 | QVQLVESGGGLVQAGGSLRLSCAASGRIFGSYAMGWYRQAPGKERELVASIRSRGGRTYYADSVKGRFTISRDNAKNTVYLQMNSLKPEDTAVYYCAADVGVYYYSFYYWGQGTQVTVSS | high polyreactivity
35 | QVQLVESGGGLVQAGGSLRLSCAASGRIFGSYTMGWYRQAPGKERELVAAISFSGARTRYADSVKGRFTISRDNAKNTVYLQMNSLKPEDTAVYYCAARFTGGKYDYWGQGTQVTVSS | high polyreactivity
36 | QVQLVESGGGLVQAGGSLRLSCAASGRIFGSYTMGWYRQAPGKERELVAGISRRGGSTYYADSVKGRFTISRDNAKNTVYLQMNSLKPEDTAVYYCAAEVYYFYFYIMDYWGQGTQVTVSS | high polyreactivity
37 | QVQLVESGGGLVQAGGSLRLSCAASGRIFGTNAMGWYRPAPGKERELVARITISTASTYYADSVKGRFTISRDNAKNTVSLQMNSLKPEDTAVYYCGVRWYIRSRPKVYKYDYWGQGTQVTVSS | high polyreactivity
38 | QVQLVESGGGLVQAGGSLRLSCAASGRIFGTNAMGWYRQAPGKERELVAAITWRGGSTYYADSVKGRFTISRDNAKNTVYLQMNSLKPVDTAVYYCAKDLVYWYQTIRAGISNYWGQGTQVTVSS | low polyreactivity
39 | QVQLVESGGGLVQAGGSLRLSCAASGRIFGVNAMGWYRQAPGKERELVAAISRSGGSTYYADSVKGRFTISRDNAKNTVYLQMNSRKPEDTAVYYCATDHFYYRQKYWAYYYWGQGTQVTVSS | high polyreactivity
40 | QVQLVESGGGLVQAGGSLRLSCAASGRIFGVNAMGWYRQAPWKERELVAAINYSGGRTSYADSVKGRFTISRDNAKNTVYLQMNSLKPEDTAVYYCNAGGRRRIFAHSSTGDYWGQGTQVTVSS | high polyreactivity
41 | QVQLVESGGGLVQAGGSLRLSCAASGRIFGVNARGWYRQAPGKERELVATITRGGNTNYADSVKGRFTISRDNAKNTVYLQMNSLKPEDTAVYYCNADRYRTFSRLPYGEYEYWGQGTQVTVSS | low polyreactivity
